Reference: PMC12133298

Biological target: Rho WT (Escherichia coli) (UniProt P0AG30)
Experiment: EMSA
Settings: 4 C, 1 mM ATP, 5 mM Mg2+, 25 mM Tris-Cl pH 8.0, 50 mM KCl, 5 mM MgCl2, 1 mM DTT, 37 C (or 4 C), 15 min, 0.8% agarose 0.5x TBE, 5 nM DNA

Rho WT (Escherichia coli), sequence (P0AG30 whole entry): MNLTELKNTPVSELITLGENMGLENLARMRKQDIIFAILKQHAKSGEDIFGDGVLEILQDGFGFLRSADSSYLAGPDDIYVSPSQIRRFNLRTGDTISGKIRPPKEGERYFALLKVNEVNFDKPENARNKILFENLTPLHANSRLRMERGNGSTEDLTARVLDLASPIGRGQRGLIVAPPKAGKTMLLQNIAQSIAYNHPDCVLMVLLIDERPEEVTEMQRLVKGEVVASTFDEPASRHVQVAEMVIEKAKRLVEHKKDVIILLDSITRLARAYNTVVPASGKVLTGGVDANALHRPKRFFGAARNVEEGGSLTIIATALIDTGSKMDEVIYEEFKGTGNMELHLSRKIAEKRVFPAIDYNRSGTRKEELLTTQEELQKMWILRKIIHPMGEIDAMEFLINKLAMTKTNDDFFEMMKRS

3.5 kb linear dsDNA
Kd: 12 nM
